Assay results reported in publication doi:10.1101/2022.09.30.510402.

Molecular target: modified αM subunit in which the αMI-domain was deleted (I-less form of Mac-1) (human) (UniProt P11215)
Assay: co-IP

CD47, sequence (Q08722 19-323): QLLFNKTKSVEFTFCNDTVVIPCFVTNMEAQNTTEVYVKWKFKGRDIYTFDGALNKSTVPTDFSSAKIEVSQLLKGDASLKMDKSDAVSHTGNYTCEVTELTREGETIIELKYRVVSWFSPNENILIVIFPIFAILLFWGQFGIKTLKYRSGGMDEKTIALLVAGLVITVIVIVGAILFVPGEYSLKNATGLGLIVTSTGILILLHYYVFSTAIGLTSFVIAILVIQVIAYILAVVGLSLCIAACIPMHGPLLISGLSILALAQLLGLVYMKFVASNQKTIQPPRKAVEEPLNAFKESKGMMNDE

fold more CD47 bound than by the whole integrin: 1.5
Substance: CD47 (from UniProt Q08722 19-323) (natural protein)
